From article PMC10962640, ““Clickable” graphene nanoribbons for biosensor interfaces†”

Key:
Interleukin-6 (IL6) [1] = biological target: T1, Interleukin-6 (IL6) (human, UniProt P05231 30-212); assay: EIS (electrochemical aptasensor); [Fe(CN)6]4- redox probe; phase shift; Hill fit, coefficient fixed at 1; Aptamer on GNR-functionalized gold electrodes, [Fe(CN)6]4- redox probe; sensing buffer, pH and temperature not given in the material (aptamer clicked in PBS 1X); conditions: protein: commercial
T1 sequence (P05231 30-212): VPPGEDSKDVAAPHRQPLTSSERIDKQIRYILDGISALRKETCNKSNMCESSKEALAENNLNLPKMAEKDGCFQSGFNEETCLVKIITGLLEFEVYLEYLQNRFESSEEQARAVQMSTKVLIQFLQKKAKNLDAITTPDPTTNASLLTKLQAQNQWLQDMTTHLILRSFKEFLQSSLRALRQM

Interleukin-6 (IL6) [2] = biological target: T1, Interleukin-6 (IL6); assay: DPV (electrochemical aptasensor); [Fe(CN)6]4- redox probe; Hill fit, coefficient fixed at 1; Aptamer on GNR-functionalized gold electrodes, [Fe(CN)6]4- redox probe; sensing buffer, pH and temperature not given in the material (aptamer clicked in PBS 1X); conditions: protein: commercial

B1: IL6 DNA aptamer (azide-modified) (ssDNA)
DNA: TTTTTTCTTCCAACGCTCGTATTGTCAGTCTTTAGT
modifications: 5' azide (/5AzideN/), clicked by CuAAC to alkyne graphene nanoribbons on gold electrode
- Kd (Interleukin-6 (IL6) [1]): 10.4 ± 3.1 nM
- Kd (Interleukin-6 (IL6) [2]): 3.4 ± 0.4 nM
